Values joined by “and” are separate entries in the source; they are usually repeats but may differ in a detail not shown here. Equal entries are not always repeated.
Key:
[1] = target: T1, human CCR8 (human, UniProt P51685 1-355); assay: cell-based or functional assay
[2] = target: T1, human CCR8; assay: flow cytometry, hCCR8-transfected CHO-K1 cells
Method: Briefly, 1.10⁵ cells per well in a 96 well plate were incubated with a dilution of unconjugated anti-CCR8 mAb at 10 μg/mL then diluted at 1/3.33, 4 dilution points (during 30 min at 4° C.). In human activated T cells model, prior to mAb incubation, cells were first incubated with 200 nM of hCCL1 (R&D Systems, Minneapolis, MN, USA) or buffer PBS (Invitrogen by Thermofisher Scientific, Illkirch-Graffenstaden, France) supplemented by 2% Fetal Bovine Serum (Invitrogen by Thermofisher Scientific, Illkirch-Graffenstaden, France) and 2 mM EDTA (Invitrogen by Thermofisher Scientific, Illkirch-Graffenstaden, France) during 1 hour at 4° C. To determine EC50 value, 8 concentrations of anti-CCR8 mAb were tested. Unbound antibodies were washed away with PBS (Invitrogen by Thermofisher Scientific, Illkirch-Graffenstaden, France) supplemented by 2% Fetal Bovine Serum (Invitrogen by Thermofisher Scientific, Illkirch-Graffenstaden, France) and 2 mM EDTA (Invitrogen by Thermofisher Scientific, Illkirch-Graffenstaden, France). Subsequently, cells are centrifuged (5 min at 400 g) and bound antibody is detected with F(ab′)2-Goat anti-Mouse IgG (H+L) Cross-Adsorbed Secondary Antibody, Alexa Fluor 488 (dilution 1/500) (Invitrogen by Thermofisher Scientific, Illkirch-Graffenstaden, France) or with F(ab′)₂-Goat anti-Human IgG Fc Secondary Antibody, PE (Invitrogen by Thermofisher Scientific, Illkirch-Graffenstaden, France) (dilution 1/1000) at 4° C. for 30 min. Detection reagent is washed away and cells are centrifuged (5 min at 400 g) and resuspended in 30 μL PBS. Bound detection antibody is quantified on a MacsQuant16 (Miltenyi, Gladbach, Germany) (B1 or B2 channel, 5000 events per acquisition). During the experiment, the respective isotype mAb controls (mouse IgG1, mouse IgG2a, mouse IgG2b, mouse IgG3 or human IgG1) (Biolegend, Amsterdam, The Netherlands) are included to exclude any unspecific binding events. EC50 values were determined via nonlinear fit “log (agonist) vs.response—Variable slope (four parameters)” function of Graphpad prism. EC50 values were not constantly determined in the same experiments.

[3] = target: T1, human CCR8; assay: cell-based or functional assay; remark: listed apart in the source
[4] = target: T1, human CCR8; assay: cell-based or functional assay; remark: listed apart in the source
[5] = target: T1, human CCR8; assay: cell-based or functional assay; remark: listed apart in the source
[6] = target: T1, human CCR8; assay: flow cytometry, inhibition of hCCL1-AF647 (10 nM) binding to hCCR8-CHO cells
Method: The hCCR8 transfected CHO cell line was dispatched at a density of 1.105 per well in a 96-well plate. Cells were incubated for 30 min at 4° C. with or without anti-CCR8 mAb tested at 10 μg/mL then diluted at 1/3. Unbound antibodies were washed away with PBS (Gibco, Villebon-sur-yvette, France) supplemented by 2% Fetal Bovine Serum (Invitrogen by Thermofisher Scientific, Illkirch-Graffenstaden, France) and 2 mM EDTA. […] After washing unbound ligands, CCL1 bound detection is quantified on a MacsQuant16 (Miltenyi, Gladbach, Germany) (R1 channel, 5 000 events per acquisition).
For IC₅₀ determination, a concentration response curve is performed using 8 concentrations of mAb. Curves are fitted and IC₅₀ of CCL1 binding blocking activity is calculated using the sigmoidal dose-response (variable slope) model on GraphPad Prism 9 (GraphPad Software, San Diego, CA, USA).

[7] = target: T2, pm3 (Y17 sulfated; Y15 and Y16 not sulfated); assay: ELISA on coated peptide [cont.]
T2 construct: also called sulfated CCR8 N-terminal peptide pm3
Method: (§1) The specific binding properties of antibodies were evaluated by ELISA with coated CCR8 related peptides (500 ng/ml) in carbonate/bicarbonate buffer. Different peptides were used as described in Table 1 (see Example 1). Each anti-CCR8 mAb was tested at 1 μg/mL then diluted at 1/10. After an incubation at room temperature during 90 min, unbound mAbs were removed by washings. […] After washings, 3,3′,5,5′-tetramethylbenzidine (TMB) (Interchim, Montluçon, France) was added for 15 min. Then the optical density (OD) was determined by using a multiplate reader (Tecan, Lyon, France) and correlated with mAb reactivity on the panel of coated peptides.

[8] = target: T3, pm6 (Y16 and Y17 sulfated; Y15 not sulfated); assay: ELISA on coated peptide [cont.]
T3 construct: also called sulfated CCR8 N-terminal peptide pm6
Method: as §1

[9] = target: T4, pm5 (Y15 and Y17 sulfated; Y16 not sulfated); assay: ELISA on coated peptide [cont.]
T4 construct: also called sulfated CCR8 N-terminal peptide pm5
Method: as §1

[10] = target: T5, pm8 (Y15, Y16 and Y17 sulfated); assay: ELISA on coated peptide [cont.]
T5 construct: also called sulfated CCR8 N-terminal peptide pm8
Method: as §1

[11] = target: human CCR8 with a SNAP-tag at the N-terminus (human, UniProt P51685 1-355, SNAP-tag labelled covalently with Lumi4-Terbium); assay: cell-based or functional assay

T2 sequence (peptide, as listed by the source): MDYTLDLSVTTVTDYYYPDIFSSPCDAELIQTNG
T4 sequence (peptide, as listed by the source): as above
T3 sequence (peptide, as listed by the source): as above
T5 sequence (peptide, as listed by the source): as above

| Binder | residual hCCL1 (100 nM) Gi2 response, protocol #2, mAb 0.08 µg/mL [1] [%] | residual hCCL1 (100 nM) Gi2 response, protocol #2, mAb 0.4 µg/mL [1] [%] | residual hCCL1 (100 nM) Gi2 response, protocol #2, mAb 10 µg/mL [1] [%] | residual hCCL1 (100 nM) Gi2 response, protocol #3, mAb 0.05 µg/mL [1] [%] | residual hCCL1 (100 nM) Gi2 response, protocol #3, mAb 0.5 µg/mL [1] [%] | residual hCCL1 (100 nM) Gi2 response, protocol #3, mAb 5 µg/mL [1] [%] | % positive cells [2] [%] | MFI fold change to isotype ctrl [2] [fold] | IC50 of CCL1-induced hCCR8 Gi2 signaling (BRET), pH 6.5 [3] | IC50 of CCL1-induced hCCR8 Gi2 signaling (BRET), pH 7.4 [3] | IC50 of CCL1-induced hCCR8 Gi2 signaling (BRET, HEK-293) [4] | extrapolated top plateau of hCCL1 curve with 5 µg/mL mAb, protocol #3 [5] | IC50 [6] | binding result [7] | binding result [8] | binding result [9] | binding result [10] | % hCCR8 internalization with CCL1 300 nM, mAb 1 µg/ml (HTRF) [11] [%] | % hCCR8 internalization with CCL1 300 nM, mAb 10 µg/ml (HTRF) [11] [%] |
| --- | --- | --- | --- | --- | --- | --- | --- | --- | --- | --- | --- | --- | --- | --- | --- | --- | --- | --- | --- |
| anti-CCR8 mAb 1-12 (antibody, V domains shown, Murine hybridoma mAb) VH: EVQLVETGGGLVQPKGSLKLSCAASGFTFNANAMNWVRQAPGKGLEWVARIRSKSNNYATYYADSVKDRFTISRDDSQSMLYLQMNNLKTEDTAMYYCVRGSDNYIFYAMDYWGQGTSVTVSS VL: DIVMTQAAPSVPVTPGESVSISCRSSKSLLHSNGNTYLYWFLQRPGQSPQLLIYRMSNLASGVPDRFSGSGSGTAFTLRISRVEAEDVGVYYCMQHLEYPFTFGGGTKLEIK | 99 | 85 | 68 | 86 | 75 | 48 | 67.8 | 6.11 | 0.031 µg/ml and 0.208 nM | 0.017 µg/ml and 0.115 nM | 0.015 µg/mL and 0.099 nM | 805000 % of hCCL1 (100 nM) | 0.85 µg/mL and 5.72 nM | binds | binds | binds | binds |  |  |
| anti-CCR8 mAb 1-13 (antibody, V domains shown, Murine hybridoma mAb) VH: EVQLVETGGGLVQPKGSLKLSCAASGFTFNTNAMNWVRQAPGKGLEWVARIRSKSNYYATYYADSVKDRFTISRDDSQSMLYLQMNNLKTEDTAMYYCVRGREMGNYYSMDYWGQGTSVTVSS VL: DIVMTQAAPSVPVTPGESVSISCRSSKSLLHSNGNTYLYWFLQRPGQSPQLLIYRMSNLASGVPDRFSGSGSGTAFTLRISRVEAEDVGVYYCMQHLEYPFTFGSGTKLEIK | 60 | 35 | 21 | 69 | 39 | 38 | 64.7 | 5.63 | 0.019 µg/ml and 0.125 nM | 0.011 µg/ml and 0.075 nM | 0.01 µg/mL and 0.067 nM | 149 % of hCCL1 (100 nM) | 0.36 µg/mL and 2.42 nM | binds | binds | binds | binds |  |  |
| anti-CCR8 mAb 1-14 (antibody, V domains shown, Murine hybridoma mAb) VH: QVQLVETGGGLVRPGNSLKLSCVTSGFTFSNYRMHWLRQPPGKRLEWIAVIKVKSDNYGANYAESVKGRFTISRDDSKSSVYLQVNRLREEDTATYYCSSPTYPGSSGFAYWGQGTLVTVSA VL: DIQMTQTTSSLSASLGDRVTISCRASQDISNYLNWYQQKPDGTVKLLIYYTSRLHSGVPSRFSGSGSGTDYSLTISNLEQEDIATYFCQQGNKFPPTFGGGTKLEIN | 93 | 89 | 48 | 92 | 68 | 50 | 83 | 17.6 | 0.014 µg/ml and 0.095 nM | 0.004 µg/ml and 0.026 nM | 0.01 µg/mL and 0.066 nM | 305000 % of hCCL1 (100 nM) | 0.28 µg/mL and 1.85 nM | binds | binds | binds | binds |  |  |
| anti-CCR8 mAb 1-7 (antibody, V domains shown, Murine hybridoma mAb) VH: QVHLVETGGGLVRPGNSLKLSCVTSGFTLSNYRMHWLRQPPGKRLEWIAVIKVKSDNYGANYAESVKGRFTISRDDAKSSVYLQMNRLREEDTATYYCSRPDGFSPFVYWGQGTLVTVSA VL: DIKMTQSPSSMYASLGERVTITCKASQDINSYLSWFQQKPGKSPKTLIYRANRLVDGVPSRFSGSGSGQDYFLTISSLEYEDMGIYYCLQYGEFPPTFGAGTKLELK | 73 | 51 | 24 | 69 | 38 | 30 | 71.3 | 6.26 | 0.011 µg/ml and 0.073 nM | 0.007 µg/ml and 0.047 nM | 0.018 µg/mL and 0.117 nM | 526000 % of hCCL1 (100 nM) | 0.89 µg/mL and 5.7 nM | binds | binds | binds | binds |  |  |
| Ref #2 (antibody, human IgG1, V domains shown) VH: QVQLVQSGAEVKKPGASVKVSCKASGYTFTSYYMHWVRQAPGQGLEWMGIINPSGGSTSYAQKFQGRVTMTRDTSTSTVYMELSSLRSEDTAVYYCARAVRNRFRFDYWGQGTLVTVSS VL: QSALTQPASVSGSPGQSITISCTGTSSDVGSYNLVSWYQQHPGKAPKLMIYEVSKRPSGVSNRFSGSKSGNTASLTISGLQAEDEADYYCSSYAGSSTFVVFGGGTKLTVL |  |  |  |  |  |  |  |  |  |  |  |  |  |  |  |  |  | 100 | 90 |
| Ref #3 (antibody, human IgG1, V domains shown) VH: EVQLVESGGGLVQPGGSLKLSCAASGFTFNTYAMNWVRQASGKGLEWVARIRSKANNYATYYADSVKDRFTISRDDSKNTLYLQMNNLKTEDTAVYYCVRDRSRGEDYAMDYWGQGTLVTVSS VL: DIVMTQSPLSLPVTPGEPASISCRSSKSLLHSNANTYLYWFLQKPGQSPQLLIYRMSNLASGVPDRFSGSGSGTAFTLKISRVEAEDVGVYYCMQHLEYPFTFGQGTKLEIK |  |  |  |  |  |  |  |  |  |  |  |  |  |  |  |  |  | 95 | 103 |
